The experiment concerns the target human NPY2 receptor (HEK293/hNPY2R cells) (human) (UniProt P49146). The experiment in a line: cell-based or functional assay.

Sequence of human NPY2 receptor (HEK293/hNPY2R cells) (human) (P49146 whole entry): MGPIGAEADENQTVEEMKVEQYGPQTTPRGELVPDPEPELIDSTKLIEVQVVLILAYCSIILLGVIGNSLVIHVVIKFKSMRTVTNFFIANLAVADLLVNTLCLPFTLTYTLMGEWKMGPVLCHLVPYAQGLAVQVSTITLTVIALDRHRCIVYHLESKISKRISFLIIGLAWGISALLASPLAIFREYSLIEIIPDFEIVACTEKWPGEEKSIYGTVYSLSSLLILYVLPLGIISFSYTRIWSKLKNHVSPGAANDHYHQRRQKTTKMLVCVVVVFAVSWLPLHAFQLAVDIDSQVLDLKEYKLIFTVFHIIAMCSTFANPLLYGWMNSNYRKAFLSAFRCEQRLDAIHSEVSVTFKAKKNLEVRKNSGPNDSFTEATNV
Sequence of PYY(3-36) wild-type (peptide; modification not given) (chain, as listed by the source): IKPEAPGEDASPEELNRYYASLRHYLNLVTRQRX

“PYY(3-36) wild-type (peptide; modification not given)”: the EC50 [nM], cAMP assay (inhibition of Forskolin stimulated cAMP accumulation in HEK293/hNPY2R cells), day 1 is 0.09 nM and the EC50 [nM], cAMP assay (inhibition of Forskolin stimulated cAMP accumulation in HEK293/hNPY2R cells), day 2 came to 0.1 nM.

For the origin of these results see patent publication US20210069338A1.
